Measurements taken from the RNAGym collection of RNA variant scans (doi:10.1073/pnas.2313332121).

B1: TPR t1 (parent)
chain: GACCAAUCUGCCCUCAGAGCUCGAGAACAUCUUCGGAUGCAGAGGAGGCAGGCUUCGGUGGCGCGAUAGCGCCAACGUCCUCAACCUCCAAUGCAUCCCACCACAUGAUGAUGCCUGAAGAGCCUUGGUUUUUUG

Variants of: B1
Assay: polymerase ribozyme fitness, log enrichment relative to wild type (log ratio); higher = more active; in vitro selection for triplet polymerase activity
Summary of the method: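 The heterodimeric triplet polymerase ribozyme's subunits were each mutagenized into PCR-built libraries and transcribed. Every library was selected once, in triplicate, by annealing with a biotinylated primer, the partner subunit and triplets, incubating frozen at −7 °C, gel-excising extended constructs, capturing on streptavidin beads and running RT-PCR. Input and output libraries were Illumina-sequenced, with genotypes kept only at ≥10 input reads and ≥1 read per output. Fitness, from inverse-variance-weighted replicate averages, is the base-2 logarithm of genotype enrichment over wild-type enrichment.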

In order of falling “polymerase ribozyme fitness (log ratio)” value:
1. C73U A121G  2.17
2. C56U U112A  1.66
3. C8G C56A C124G  1.48
4. G120A C123G  1.22
5. U9A G117A  1.04
6. G10C A66U C97U G120U C123U  0.489
7. U9C C73A A74U  0.19
8. C72G U78G C97U  0.186
9. C8G C12A G63C  0.17
10. G127C U130C  0.0399
11. C70U G122U  -0.0756
12. C40U G61A U78C  -0.104
13. U131G U133A  -0.289
14. G44U A46U C89A  -0.411
15. G44C A74C A111C  -0.547
16. G44A U55G G63C  -0.567
17. C82U A83G C101U  -0.587
18. G10A C56U C94G  -0.664
19. C12U A43C C72A A90U  -0.685
20. A6C U78C  -0.721
21. C56A C76A  -0.802
22. A6U G63C  -0.899
23. G45U G63C C104U  -0.927
24. A46C U54A  -0.931
25. U21C C49A U78G C123A  -1.05
26. C8A C56A C72G  -1.07
27. U32C C56A  -1.29
28. A29U G36U U112C  -1.39
29. G42A A83C U112A  -1.42
30. G63A C88A  -1.42
31. G48U U87G A90U  -1.49
32. A5U U7A C15U C76A  -1.76
33. A74G A75U U106G  -1.96
34. U21G G52A C102A C124U  -2.14
35. C11G A29G C94G  -2.16
36. C53G U78C C114U U132A  -2.19
37. C62U A105U  -2.19
38. G47C G93A C124A G127U G135U  -2.23
39. G39C A50U C53U U78G  -2.26
40. G44U C73A C102A  -2.29
41. C80U U129G U133A  -2.36
42. G61U C73U G93U  -2.38
43. U14C G93U U112A  -2.43
44. C62U U78C C101G A118G U133A  -2.5
45. C20U U78A C85U  -2.54
46. U14A A37C A43U A90U U130G  -2.85
47. C79G C101A  -3.09
48. G63U A91C  -3.19
49. C11A G17U C115G C123G U126C  -3.25
50. U14C C70G C82U U106A  -3.34
51. C40A C79G  -3.35
52. A5U C22G  -3.43
53. G69A C101A  -3.72
54. G45A G48U C49A C53U C115G  -3.77
55. A18C C73G C114U  -3.9
56. C13A C15A G47A C123U G127C  -3.95
57. A2U A5G G60C  -4
58. G45C G113C G135U  -4.16
59. C13U G48U G110C  -4.34
60. G39A A43U G63U C86G  -4.39
61. C34A C70U G120C  -4.45
62. G48C G52U U55G C76U A100C U125G  -4.57
63. G51C G93C  -4.73
64. U33A A84U C97U  -4.91
65. U54A G58C C64U G110C  -5.03
66. U7A G10A C28G C73A U109A A119G C123G  -5.03
67. A6G C12A G23C A66G C114U G128A  -5.09
68. C49G U55G C89A U92C  -5.1
69. C62A G77U U78A A119U G128C  -5.16
70. C22U C40U G57U  -5.18
71. A16G G57C C98U U112A G128C  -5.3
72. C86G A103G  -5.43
73. G71A C99U C115A U129C G135U  -5.53
74. C4A C72U G110A U129G  -5.59
75. G60A A105C C115U  -5.65
76. A18U C88U A111U G127A  -5.73
77. A37G G51C G77C C80A G120C G128C  -5.93
78. C20U C49U G71C A90U G117U  -6.09
79. U14A G57C G58A G61A C89U G127U U129C U130C  -6.54
80. G17A G25A G51C C53G A111C  -6.66
81. C56U G69C C114G  -6.88
82. G77U U109A U116G  -7.07
83. U54G A68C C101A G113U  -7.46
